Where a chain is given by its changes, count along the chain named.
B1: 75110_08H11A (antibody, V domains shown)
VH: EVQLVESGGGLVQPGGSLRLSCAASGFTFSSYDMHWVRQATGKGLEWVSTIGTAGDTYYPGSVKGRFTISRENAKNSLYLQMNSLRAGDTAVYYCARGGYSYYGMDVWGQGTTVTVSS
VL: EIVLTQSPGTLSLSPGERATLSCGASQSVSSTYLAWYQQKPGQAPRLLIYGASSRATGIPDRFSGSGSGTDFTLTISRLEPEDFAVYYCQQFGSSPFTFGPGTKVDIK
notes: Tested as non-clonal hybridoma supernatant from AlivaMab Mouse Kappa mice, detected with anti-mouse Fc and anti-human Kappa
B2: 75110_08H06A (antibody, V domains shown)
VH: B1 VH with S31N, S101D
VL: B1 VL with G24R, V29I, S30T, T32I, Q38R, F92Y
notes: as for B1
B3: 75110_10N21A (antibody, V domains shown)
VH: B1 VH with A40V, S101Y
VL: B1 VL with G24R, V29F, S30I, T32S, E80D, F92S, S94N, I107V
notes: as for B1
B4: 75110_13C07A (antibody, V domains shown)
VH: B1 VH with G10V, S31N, I69L, N83H, G99A, S101G
VL: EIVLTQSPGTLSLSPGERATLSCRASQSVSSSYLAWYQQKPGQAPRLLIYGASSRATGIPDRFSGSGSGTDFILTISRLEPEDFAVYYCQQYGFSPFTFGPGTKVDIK
notes: as for B1
B5: 75110_14H13A (antibody, V domains shown)
VH: B1 VH with S31N, E72K, N83I, Y100D, S101Y
VL: not shown
notes: as for B1
B6: 75110_14P05A (antibody, V domains shown)
VH: B1 VH with M34V, Y100F, S101Y
VL: B1 VL with G24R, T32S, A44T, Y87F, F92S, I107V
notes: Tested as AlivaMab Mouse (AMM) antibody purified from hybridoma supernatant and captured through its mouse IgG Fc; also called ADS75110 purified AMM Ab 75110_14P05A; Sib1.10
B7: 75110_14P08A (antibody, V domains shown)
VH: QVQLQESGPGLVKSSETLSLTCTDSGDSIRSYYWNWIRQPAGKGLEWIGRIYASGSTNYNPSLKSRVIMSADTSKNRFSLKLSSVTAADTAVYYCARDGGVGDSLDYWGQGTLVTVSS
VL: DIVMTQTPLSLPVTPGEPASISCRSSQSLLDSDDGNTYLDWYLQKPGQSPQLLIYTLSYRASGVPDRFSGSGSGTDFTLKISRVEAEDVGVYYCMQRIEFPFTFGPGTKVDIK
notes: Tested as AlivaMab Mouse (AMM) antibody purified from hybridoma supernatant and captured through its mouse IgG Fc; also called ADS75110 purified AMM Ab 75110_14P08A; Sib8.2
B8: 75110_08H11A (antibody, V domains shown)
VH: B1 VH
VL: B1 VL
notes: Tested as antibody purified from AlivaMab Mouse hybridoma supernatant (human variable domains, kappa; mouse Fc, captured on anti-mouse IgG Fc sensors); also called ADS75110 purified AMM Ab
B9: 75110_08H06A (antibody, V domains shown)
VH: B1 VH with S31N, S101D
VL: B1 VL with G24R, V29I, S30T, T32I, Q38R, F92Y
notes: as for B8
B10: 75110_14H13A (antibody, V domains shown)
VH: B1 VH with S31N, E72K, N83I, Y100D, S101Y
VL: not shown
notes: as for B8
B11: 75110_10K21A (antibody, V domains shown)
VH: EVQLVESGGGLVQPGGSLRLSCAASGFTFSSYWMTWVRQAPGKGLEWVANIKQDGSEKYYVDSVKGRFTISRDNAKNSLYLQMNSLRAEDTAVYYCVRDRYDALDIWGQGTMVTVSS
VL: AIQMTQSPSSLSASVGDRVTITCRASQGIRNDLNWYQQKPGKAPKLLIYAASSLQSGVPSRFSGSGSGTDFTLTISSLQAEDFATYYCLKDYNYPYTFGQGTKLEIK
notes: as for B1
B12: 75110_01H18A (antibody, V domains shown)
VH: QVQLQQWGAGLLKPSETLSLTCAVYGGSFSGYYWSWIRQSPGKGLEWIGEINQSGSTNYNPSLKSRVTISVDTSKNQFSLKLSSVTAADTAVYYCARVINWFDSWGQGTLVTVSS
VL: DIQMTQSPSSVSASVGDRVTITCRASQGISSWLAWYQQKPGKAPKLLIYAASSFQSGVPSRFSGSGSGTDFTLTISSLQTEDFATYYCQQANSFPYTFGQGTRLEIK
notes: as for B1
B13: 75110_07J24A (antibody, V domains shown)
VH: QAQLQESGPGLVKPSETLSLTCTVSGGSISSYYYNWIRQPAGKGLEWIGRIYTSGRTDYNPSLKSRVTMSADTSKNQFSLKLSSVTAADTAVYYCARDEGPTDAFDIWGQGTMVTVSS
VL: B7 VL with Q51H, T75S
notes: as for B8
B14: 75110_14G10A (antibody, V domains shown)
VH: EVQLVESGGGLVKPGGSLRLSCAASGFTFSSYSMNWVRQAPGKGLEWVSFISSSSSYIYYADSVKGRFTISRDNAKNSLYLQMNSLRAEDTAVYYCARERGDDYGDYEGAFDIWGQGTMVTVSS
VL: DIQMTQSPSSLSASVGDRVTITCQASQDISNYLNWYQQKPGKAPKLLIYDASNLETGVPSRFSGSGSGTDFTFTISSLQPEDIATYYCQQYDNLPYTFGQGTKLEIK
notes: as for B8

Assays:
[1] = biological target: T1, human CD4 on cells (SKW3 cells; human PBMCs) (human, UniProt P01730 26-458); test: FACS primary screen, non-clonal supernatant; SKW3 vs SKW3 CD4 KO cells, anti-human Kappa FITC detection
T1 construct: whole, on cells; The SKW3 CD4 knockout cells served as the negative cell line; also called hCD4

[2] = biological target: T1, human CD4 on cells (SKW3 cells; human …); test: FACS binning on SKW3 cells after supernatant; competitor RPA-T4-PE-Dazzle 594; background 783, max binding 15000
[3] = biological target: T1, human CD4 on cells (SKW3 cells; human …); test: FACS binning on SKW3 cells after supernatant; competitor OKT4a, anti-hu A647 secondary; background 5000, max binding 35000
[4] = biological target: T1, human CD4 on cells (SKW3 cells; human …); test: FACS confirmation, supernatant on human PBMCs, anti-mFc 647
[5] = biological target: T1, human CD4 on cells (SKW3 cells; human …); test: FACS confirmation, supernatant on human PBMCs, anti-mFc 647, CD4+ gate
huCD4-HIS = biological target: T2, huCD4-HIS (human, UniProt P01730 26-390, limits assumed); test: ELISA binning, competitor Ibalizumab; 100 ng/mL huCD4-HIS, anti-HIS HRP detection; background 45, max binding 3000000
T2 construct: Named only in the head of the Ibalizumab ELISA binning column; Neither the source nor the construct limits are told in this stretch; not shown: HIS tag

[6] = biological target: T1, human CD4 on cells (SKW3 cells; human …); test: FACS primary screen, non-clonal supernatant; SKW3 vs SKW3 CD4 KO cells, anti-mouse Fc 647 detection
[7] = biological target: T1, human CD4 on cells (SKW3 cells; human …); test: FACS confirmation, supernatant on SKW3 WT cells, anti-hu Kappa FITC; background gMFI 2500
[8] = biological target: T1, human CD4 on cells (SKW3 cells; human …); test: FACS binning on SKW3 cells after supernatant; competitor OKT4-A488; background 2163, max binding 8200
[9] = biological target: T1, human CD4 on cells (SKW3 cells; human …); test: FACS confirmation, supernatant on SKW3 WT cells, anti-mFc 647; background gMFI 3300
[10] = biological target: T3, Recombinant human CD4 (R&D Systems, Cat. 10327-CD) (human, UniProt P01730 26-390, limits assumed); test: BLI (Octet Red384); purified antibody captured on anti-mouse IgG Fc (AMC) sensors; human CD4 as analyte at 100, 50 and 25 nM; 1:1 global fit
T3 construct: Bought recombinant protein; also called huCD4

[11] = biological target: T4, Rhesus macaque CD4-HIS (Acro Biosystems, Cat. CD4-C52H7) (rhesus macaque, UniProt P16003 26-390); test: BLI (Octet Red384); Ab on anti-mouse Fc (AMC) sensor; rhesus CD4-HIS as analyte
T4 construct: Bought reagent; also called Rhesus CD4; rhesus CD4-HIS; not shown: His tag
T4 sequence (P16003 26-390 limits assumed): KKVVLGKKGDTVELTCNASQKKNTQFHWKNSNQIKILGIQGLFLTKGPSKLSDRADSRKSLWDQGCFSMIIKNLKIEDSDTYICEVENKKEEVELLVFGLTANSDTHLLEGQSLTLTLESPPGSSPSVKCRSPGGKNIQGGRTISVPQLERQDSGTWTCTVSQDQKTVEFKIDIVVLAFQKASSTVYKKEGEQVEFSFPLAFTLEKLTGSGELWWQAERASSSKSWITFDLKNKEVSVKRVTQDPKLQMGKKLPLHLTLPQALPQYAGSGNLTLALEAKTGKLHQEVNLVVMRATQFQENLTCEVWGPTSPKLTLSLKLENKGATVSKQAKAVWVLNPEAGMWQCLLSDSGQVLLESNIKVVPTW

| Binder | SKW3 WT vs KO, anti-hKappa-FITC (ratio) [1] [ratio] | RPA-T4-PE-Dazzle 594 signal (FACS binning) [2] | OKT4a anti-hu A647 signal (FACS binning) [3] | PBMCs CD4+ percent bound of viable [4] [%] | PBMCs CD4+ gate RL1 Binding [5] | Ibalizumab ELISA binning signal (huCD4-HIS) | SKW3 WT vs KO, anti-mFc-647 (ratio) [6] [ratio] | gMFI, SKW3 WT anti-hu Kappa FITC [7] [gMFI] | OKT4 A488 signal (FACS binning) [8] | gMFI, SKW3 WT anti-mFc 647 [9] [gMFI] | Kd [10] [nM] | koff [10] [s⁻¹] | kon [10] [M⁻¹ s⁻¹] | binding result [11] |
| --- | --- | --- | --- | --- | --- | --- | --- | --- | --- | --- | --- | --- | --- | --- |
| B1 | 1.6 | 3090 | 36000 | 31 | 246000 | 869000 | 2.8 | 5230 | 9770 | 18600 |  |  |  |  |
| B2 | 1.6 | 2480 | 29900 | 30 | 225000 | 1.42e+06 | 3 | 6270 | 10400 | 23000 |  |  |  |  |
| B3 | 1.4 | 6880 | 40100 | 33 | 179000 | 1.58e+06 | 3.1 | 4060 | 9090 | 13000 |  |  |  |  |
| B4 | 1.6 | 2510 | 38900 | 35 | 303000 | 1.7e+06 | 3.1 | 5720 | 9590 | 23100 |  |  |  |  |
| B5 | 1.9 | 1660 | 14300 | 29 | 292000 | 2260 | 4.8 | 6010 | 12700 | 22000 |  |  |  |  |
| B6 |  |  |  |  |  |  |  |  |  |  | < 0.001 | < 1e-07 | 95000 |  |
| B7 |  |  |  |  |  |  |  |  |  |  | 0.33 | 3.2e-05 | 96000 |  |
| B8 |  |  |  |  |  |  |  |  |  |  |  |  |  | no binding (tested: 100 nM (highest of 100, 50, 25 nM)) |
| B9 |  |  |  |  |  |  |  |  |  |  |  |  |  | no binding (tested: 100 nM (highest of 100, 50, 25 nM)) |
| B10 |  |  |  |  |  |  |  |  |  |  |  |  |  | no binding (tested: 100 nM (highest of 100, 50, 25 nM)) |
| B11 | 1.7 | 2590 | 34100 | 32 | 224000 | 293000 | 2.6 | 5850 | 9980 | 19200 |  |  |  |  |
| B12 | 1.6 | 2830 | 37200 | 32 | 263000 | 385000 | 3.6 | 4930 | 9840 | 19000 |  |  |  |  |
| B13 |  |  |  |  |  |  |  |  |  |  |  |  |  | no binding (tested: 100 nM (highest of 100, 50, 25 nM)) |
| B14 |  |  |  |  |  |  |  |  |  |  |  |  |  | no binding (tested: 100 nM (highest of 100, 50, 25 nM)) |

Source: patent US20220112288A1 (published 2022)
